Changes are numbered by the printed parent chain. Names and notes keep the numbering of the source.
B1: Fc-fusion CTR-RELN WT (184I pfcn-huIgG2-C-termH3447WT) (Fc fusion)
chain: APLERKSSVECPPCPAPPVAGPSVFLFPPKPKDTLMISRTPEVTCVVVDVSHEDPEVQFNWYVDGVEVHNAKTKPREEQFNSTFRVVSVLTVVHQDWLNGKEYKCKVSNKGLPAPIEKTISKTKGQPREPQVYTLPPSREEMTKNQVSLTCLVKGFYPSDIAVEWESNGQPENNYKTTPPMLDSDGSFFLYSKLTVDKSRWQQGNVFSCSVMHEALHNHYTQKSLSLSPGARTSTRKQNYMMNFSRQHGLRHFYNRRRR
notes: also called Fc-WT
B2: Fc-fusion CTR-RELN H3447R (184J pfcn-huIgG2-C-termH3447R) (Fc fusion)
chain: B1 chain with H252R
notes: also called Fc-H3447R
B3: C-terminal region of RELN (CTR-RELN) WT recombinant peptide, long (peptide)
peptide: RKQNYMMNFSRQHGLRHFYNRRRRSLRRYP
notes: also called WT long; C-terminal RELN WT uncleaved
B4: C-terminal region of RELN (CTR-RELN) H3447R recombinant peptide, long (peptide)
peptide: B3 peptide with H17R
notes: also called H3447R long; C-terminal RELN H3447R uncleaved

Experiments:
[1] = target: T1, Neuropilin 1 (NRP1), R&D 3870-N1-025 (UniProt O14786-2 22-644, biotinylated at a 1:2 molar ratio); test: BLI (Octet), biotinylated NRP1 on SA biosensor, 1:1 global fit
T1 construct: Biotinylated and immobilised on streptavidin biosensor tips; also called Neurophilin 1
T1 sequence (looked up): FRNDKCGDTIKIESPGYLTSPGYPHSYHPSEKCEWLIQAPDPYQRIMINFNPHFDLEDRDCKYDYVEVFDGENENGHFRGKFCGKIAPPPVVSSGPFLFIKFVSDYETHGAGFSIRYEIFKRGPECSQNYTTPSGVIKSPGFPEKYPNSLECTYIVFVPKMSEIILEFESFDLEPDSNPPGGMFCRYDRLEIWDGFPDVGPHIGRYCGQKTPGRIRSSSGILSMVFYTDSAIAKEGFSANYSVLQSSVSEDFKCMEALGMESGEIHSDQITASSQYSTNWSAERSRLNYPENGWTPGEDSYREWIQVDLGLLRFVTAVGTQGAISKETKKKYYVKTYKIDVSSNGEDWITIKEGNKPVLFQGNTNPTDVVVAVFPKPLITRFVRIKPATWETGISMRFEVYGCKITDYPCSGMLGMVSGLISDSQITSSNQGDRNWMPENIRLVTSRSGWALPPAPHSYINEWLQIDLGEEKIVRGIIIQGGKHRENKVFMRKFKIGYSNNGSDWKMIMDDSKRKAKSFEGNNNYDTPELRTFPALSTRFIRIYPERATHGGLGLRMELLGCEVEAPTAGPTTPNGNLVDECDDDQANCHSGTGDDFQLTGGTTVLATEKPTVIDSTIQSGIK
Protocol: (§1) Bio-layer interferometry (BLI) was used to assess NRP1-protein kinetics at 30° C. and 1000 rpm agitation using previously published methods. 1 mg/mL NRP1 (R&D 3870-N1-025) was biotinylated at a 1:2 molar ratio, desalted, and immobilized on the SA biosensor tip (Pall ForteBio) surface. This was followed by 1) 180 seconds baseline buffer diluent, 2) loading of the ligand (NRP1), 3) 180 seconds baseline buffer diluent, 4) 240 seconds association (analyte), and 5) 300 seconds disassociation in assay buffer. Assay buffer: SD Buffer (pH7.4 PBS, 0.05% tween20, 0.01% BSA).
(§2) The experimental data were fit with the 1:1 binding model and analyzed with global fitting using Octet Data Analysis software to calculate KD.

[2] = target: T1, Neuropilin 1 (NRP1), R&D 3870-N1-025; test: BLI, NRP1 on biosensor
Protocol: as §1, §2

VLDLr (8444-VL, R&D) = VLDLr (8444-VL, R&D) (UniProt P98155 28-797, limits assumed); test: ELISA on coated receptor
Protocol: (§3) Enzyme-linked immunosorbent assay (ELISA) was used to quantify changes in binding of RELN variants (media-derived full-length or CTR-RELN) to either VLDLr or ApoEr2 following an optimized version of a previously published protocol (6). Briefly, ELISA strips (DY008, R&D Systems) were coated with one ng/μL (100 μL/well) of VLDLr (8444-VL, R&D) or ApoEr2 (TP320903, OnGene) receptors diluted in 25 mM Tris HCl, 140 mM NaCl, […], two mM CaCl₂), pH 7.4 (TBS-C buffer). After 18 h at four ° C. incubation, plates were blocked one h with three % BSA (22070008-6, Bioworld), 0.05% Tween-20 (Sigma Aldrich) TBS-C buffer. We assessed binding via incubation with 100 μL/well of serial dilutions of recombinant RELN protein (Ser1221-Gln2666, 8546-MR-050, R&D) or RELN variants in TBS-C buffer for one hour at room temperature. For detection, we used goat anti-mouse RELN primary antibody (LS-C793521-100, LS-Bio, 1:2,000, 100 μL/well) as primary antibody for one h at R.T. and (1:10,000; 100 μL/well, donkey anti-goat IgG H&L, HRP, ab6885, Abcam) as secondary antibody for 30 min. at R.T. Between each of the previous steps, plates were washed four times with TBS-C buffer (200 μL/well). Plates were washed three times prior to initiating the colorimetric reaction (DY008, R&D Systems). Stop solution (50 μL/well, DY008, R&D Systems) was added upon five min. incubation and the absorbance of the samples was measured at 450 nm using the Synergy 2 microplate reader (BioTek Instruments). Processing and analysis of the data was done using Gen5 1.11 software and GraphPad Prism, respectively.

[3] = target: T2, ApoEr2 (TP320903, OnGene) (UniProt Q14114 33-963, limits assumed); test: ELISA on coated receptor
T2 sequence (looked up): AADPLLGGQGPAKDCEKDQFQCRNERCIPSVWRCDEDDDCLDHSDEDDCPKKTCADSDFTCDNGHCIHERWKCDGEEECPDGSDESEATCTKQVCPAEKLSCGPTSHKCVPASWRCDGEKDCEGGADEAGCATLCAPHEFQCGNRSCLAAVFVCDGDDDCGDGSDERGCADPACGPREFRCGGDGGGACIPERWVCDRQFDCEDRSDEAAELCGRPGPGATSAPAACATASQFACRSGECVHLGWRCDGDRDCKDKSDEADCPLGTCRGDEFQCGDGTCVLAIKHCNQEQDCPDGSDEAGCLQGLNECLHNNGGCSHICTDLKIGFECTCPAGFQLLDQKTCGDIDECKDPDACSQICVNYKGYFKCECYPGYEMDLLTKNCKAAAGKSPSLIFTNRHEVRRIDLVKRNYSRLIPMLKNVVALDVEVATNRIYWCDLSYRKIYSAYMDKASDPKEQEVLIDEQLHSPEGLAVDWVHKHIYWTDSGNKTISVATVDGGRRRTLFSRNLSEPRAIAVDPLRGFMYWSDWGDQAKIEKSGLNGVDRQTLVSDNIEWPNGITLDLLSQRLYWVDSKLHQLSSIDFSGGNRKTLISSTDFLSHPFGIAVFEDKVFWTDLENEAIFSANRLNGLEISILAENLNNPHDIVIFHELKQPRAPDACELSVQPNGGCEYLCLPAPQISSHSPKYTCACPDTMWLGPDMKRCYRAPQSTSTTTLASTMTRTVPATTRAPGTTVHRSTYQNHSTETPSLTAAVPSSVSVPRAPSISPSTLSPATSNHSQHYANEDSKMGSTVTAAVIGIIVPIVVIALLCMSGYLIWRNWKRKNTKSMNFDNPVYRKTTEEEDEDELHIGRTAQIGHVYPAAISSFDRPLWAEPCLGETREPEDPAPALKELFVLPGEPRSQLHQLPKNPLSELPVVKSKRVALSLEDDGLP
Protocol: as §3

[4] = target: Amyloid beta (Abeta42; beta-Amyloid (1-42)) (UniProt P05067 672-713); test: cell-based or functional assay
Chain of Amyloid beta (Abeta42; beta-Amyloid (1-42)) (P05067 672-713 limits assumed): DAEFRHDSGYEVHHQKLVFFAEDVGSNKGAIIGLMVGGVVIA

| Binder | Kd [1] [nM] | koff [1] [s⁻¹] | kon [1] [M⁻¹ s⁻¹] | binding result (VLDLr (8444-VL, R&D)) | binding result [3] | other results |
| --- | --- | --- | --- | --- | --- | --- |
| B1 | 610 | 0.00573 | 9400 | – | – | fold less affinity than VEGF [2]: 100 fold |
| B2 | 79.3 | 0.00102 | 12900 | – | – | fold affinity against wild-type CTR-RELN [2]: 10 fold |
| B3 | – | – | – | no binding | no binding | – |
| B4 | – | – | – | no binding | no binding | – |
| RKQNYMMNFSRQHGLRDFYNRRRR [Reelin CTR peptide H3447D short] | – | – | – | – | – | Thioflavin T fluorescence assay of Abeta aggregation, fold aggregation against H3447K short [4]: ~3 fold |

From patent publication US20260139017A1 (GENERAL HOSPITAL, published 2026)
